Measured values reported in the supplement of paper PMC9233669.
Fewer inactive variants are shown than the library holds.

Columns and labels:
biotinyl-Phe-oxazolone = assay: self-aminoacylation, catalytic enhancement (BFO) (fold over background); higher = more active; k-Seq, kA / k0A0; sequences stand for … in GGGAAUGGAUCCACAUCUACGAAUUC…UUCACUGCAGACUUGACGAAGCUG
Method in brief: (§1)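 Catalytic enhancement equals the median kA over the uncatalyzed rate, the latter read from the low-activity peak of a bimodal Gaussian fit. Values of kA came from fitting each sequence's fraction reacted to a pseudo-first-order model, with 1000 bootstraps. Reacted RNA was captured with streptavidin and quantified by triplicate qPCR and Illumina sequencing after 90 minutes at room temperature with 2–1250 μM biotinyl-aminoacyl-oxazolone and 0.43 μM mutagenized RNA pools bearing a 21-nt variable region.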

biotinyl-Met-oxazolone = assay: self-aminoacylation, catalytic enhancement (BMO) (fold over background); higher = more active; k-Seq, kA / k0A0; sequences stand for … in GGGAAUGGAUCCACAUCUACGAAUUC…UUCACUGCAGACUUGACGAAGCUG
Method in brief: as §1

biotinyl-Leu-oxazolone = assay: self-aminoacylation, catalytic enhancement (BLO) (fold over background); higher = more active; k-Seq, kA / k0A0; sequences stand for … in GGGAAUGGAUCCACAUCUACGAAUUC…UUCACUGCAGACUUGACGAAGCUG
Method in brief: as §1

biotinyl-Trp-oxazolone = assay: self-aminoacylation, catalytic enhancement (BWO) (fold over background); higher = more active; k-Seq, kA / k0A0; sequences stand for … in GGGAAUGGAUCCACAUCUACGAAUUC…UUCACUGCAGACUUGACGAAGCUG
Method in brief: as §1

biotinyl-Val-oxazolone = assay: self-aminoacylation, catalytic enhancement (BVO) (fold over background); higher = more active; k-Seq, kA / k0A0; sequences stand for … in GGGAAUGGAUCCACAUCUACGAAUUC…UUCACUGCAGACUUGACGAAGCUG
Method in brief: as §1

biotinyl-Ile-oxazolone = assay: self-aminoacylation, catalytic enhancement (BIO) (fold over background); higher = more active; k-Seq, kA / k0A0; sequences stand for … in GGGAAUGGAUCCACAUCUACGAAUUC…UUCACUGCAGACUUGACGAAGCUG
Method in brief: as §1

Row | Sequence | self-aminoacylation (biotinyl-Phe-oxazolone) | self-aminoacylation (biotinyl-Met-oxazolone) | self-aminoacylation (biotinyl-Leu-oxazolone) | self-aminoacylation (biotinyl-Trp-oxazolone) | self-aminoacylation (biotinyl-Val-oxazolone) | self-aminoacylation (biotinyl-Ile-oxazolone)
1 | AUUAGCCUGGUCAACGAGUGA [Fam2.1 aminoacylation ribozyme variant] | 18.2 | 5.21 | 5.61 | 6.82 | 3.45 | 3.71
2 | AUUACCCAGGUCAGCGAGUGA [Fam2.1 aminoacylation ribozyme variant] | 34.2 | 5.2 | 5.59 | 6.47 | 3.31 | 3.4
3 | AAGUUUGCGAAUAGUCCCAAG [Fam3.1 aminoacylation ribozyme variant] | 1.03 | 1.14 | 0.951 | 0.863 | 0.844 | 1.06
4 | CUACUUCAAACAAUCGGUGGG [Fam1A.1 aminoacylation ribozyme variant] | 1.14 | 0.811 | 0.878 | 0.856 | 0.816 | 0.934
5 | UUACUUCAAACAAUCGGUAUG [Fam1A.1 aminoacylation ribozyme variant] | 12.4 | 1.02 | 1.3 | 7.05 | 1.02 | 1.16
6 | AUUCUCCUCGGUCAUCGGGUG [Fam2.2 aminoacylation ribozyme variant] | 108 | 11.3 | 15.5 | 11.6 | 7.28 | 8.05
7 | CCCCUUCAAACAAUCGGUCUG [Fam1A.1 aminoacylation ribozyme variant] | 185 | 2.05 | 3.29 | 72.5 | 2.44 | 1.79
8 | AUUACCCUGGUCAUGGAGAGA [Fam2.1 aminoacylation ribozyme variant] | 1.19 | 0.941 | 1.2 | 1.77 | 1.18 | 0.877
9 | AUUCAACUAGGUGAUCGGGUG [Fam2.2 aminoacylation ribozyme variant] | 21.9 | 3.11 | 4.01 | 4.01 | 2.76 | 3.02
10 | CCACACUUCAAGCAUUCGGCC [Fam1B.1 aminoacylation ribozyme variant] | 0.749 | 1.25 | 1.63 | 1.69 | 1.99 | 1.84
11 | AUUACCCUGCUUAUCGAGUGA [Fam2.1 aminoacylation ribozyme variant] | 2.4 | 1.64 | 1.96 | 2.33 | 1.37 | 1.29
12 | AUUCACCUAGGUCAUGGGGUG [Fam2.2 aminoacylation ribozyme variant] | 39.9 | 5.76 | 7.33 | 5.27 | 3.56 | 3.7
13 | CUACUUCACGCAAUCGGUCUG [Fam1A.1 aminoacylation ribozyme variant] | 0.929 | 0.912 | 0.711 | 0.819 | 0.908 | 0.837
14 | AAGUUUCCUAAUUGUCGCAAG [Fam3.1 aminoacylation ribozyme variant] | 0.96 | 1.14 | 1.88 | 0.994 | 1.38 | 1.47
15 | AUUCACCUAGGUCAGCGGGGG [Fam2.2 aminoacylation ribozyme variant] | 27.6 | 5.1 | 5.24 | 5.24 | 3.43 | 4.35
16 | GUUACACUGGUCAUCGAGUGA [Fam2.1 aminoacylation ribozyme variant] | 28.9 | 6.79 | 6.76 | 8.81 | 4.18 | 4.91
17 | CUACUUCAUAGAAUCGGUCUG [Fam1A.1 aminoacylation ribozyme variant] | 0.644 | 0.75 | 0.837 | 0.698 | 0.749 | 0.783
18 | AAGUUUGCUAAUAGUAGCGAG [Fam3.1 aminoacylation ribozyme variant] | 1.65 | 0.995 | 0.962 | 1.14 | 1 | 1.21
19 | AUUACCCCGGUCGUCGAGUGA [Fam2.1 aminoacylation ribozyme variant] | 2.06 | 1.39 | 1.41 | 0.938 | 1 | 0.914
20 | AUUACCCUGGUCUUCGCGUGA [Fam2.1 aminoacylation ribozyme variant] | 55.2 | 9.58 | 9.77 | 11.5 | 6.16 | 5.89
21 | CUACUUAAUACAAUCGGUCUG [Fam1A.1 aminoacylation ribozyme variant] | 0.835 | 0.89 | 0.761 | 0.631 | 0.849 | 0.782

Row | Sequence | self-aminoacylation (biotinyl-Phe-oxazolone) | self-aminoacylation (biotinyl-Met-oxazolone) | self-aminoacylation (biotinyl-Leu-oxazolone) | self-aminoacylation (biotinyl-Trp-oxazolone) | self-aminoacylation (biotinyl-Val-oxazolone) | self-aminoacylation (biotinyl-Ile-oxazolone)
22 | AUUACCGAGGUCAUCGAGUGA [Fam2.1 aminoacylation ribozyme variant] | 38.1 | 6.93 | 8.4 | 10.8 | 4.64 | 3.99
23 | AUUAGCCUGGUCACCGAGUGA [Fam2.1 aminoacylation ribozyme variant] | 58.3 | 8.98 | 11.5 | 11.4 | 4.65 | 4.14
24 | AUUACCCCGGUCCUCGAGUGA [Fam2.1 aminoacylation ribozyme variant] | 25.5 | 3.32 | 3.97 | 4.82 | 2.21 | 2.29
25 | CUACUUCAGACACUCGGUCUG [Fam1A.1 aminoacylation ribozyme variant] | 1.77 | 1.49 | 1.52 | 1.03 | 1.54 | 1.2
26 | CGACACUUCAAGCAAUCGGCC [Fam1B.1 aminoacylation ribozyme variant] | 3.39 | 1.79 | 2.84 | 3.53 | 3.32 | 3.11
27 | CUACUUUAGACAAUCGGUCUG [Fam1A.1 aminoacylation ribozyme variant] | 0.65 | 0.847 | 0.7 | 0.518 | 0.826 | 0.77
28 | AUUACCCUGGUCAUCUUGUGA [Fam2.1 aminoacylation ribozyme variant] | 22.6 | 4.75 | 4.41 | 4.57 | 2.33 | 2.27
29 | AUUUACCUAGGACAUCGGGUG [Fam2.2 aminoacylation ribozyme variant] | 10.9 | 2.48 | 3.45 | 2.29 | 2.23 | 2.26
30 | AUUACCCUGGUCAUCGGGUGC [Fam2.1 aminoacylation ribozyme variant] | 211 | 39.2 | 52.5 | 48.7 | 18.9 | 13.4
31 | AUUACCCUGGUGCUCGAGUGA [Fam2.1 aminoacylation ribozyme variant] | 25 | 3.93 | 4.67 | 5.2 | 2.38 | 2.14
32 | AUUCACCUUGGUCCUCGGGUG [Fam2.2 aminoacylation ribozyme variant] | 39.2 | 5.93 | 8.12 | 5.17 | 3.67 | 3.53
33 | AUGCACCUAGGUCCUCGGGUG [Fam2.2 aminoacylation ribozyme variant] | 27.2 | 3.7 | 5.43 | 5.64 | 3.19 | 3.44
34 | AUUAUCCUGGUAAUCGAGUGA [Fam2.1 aminoacylation ribozyme variant] | 96.5 | 13.3 | 14.5 | 16.5 | 5.97 | 5.94
35 | CUUACCCUGGUGAUCGAGUGA [Fam2.1 aminoacylation ribozyme variant] | 14.5 | 4.51 | 4.36 | 5.52 | 2.81 | 2.65
36 | AUCACCUUGGUCAUCGAGUGA [Fam2.1 aminoacylation ribozyme variant] | 5.13 | 5.76 | 6.86 | 7.19 | 3.35 | 3.39
37 | CUACUACAAACAAUCAGUCUG [Fam1A.1 aminoacylation ribozyme variant] | 0.88 | 0.467 | 0.7 | 0.554 | 0.732 | 0.657
38 | CUAUUUCAAACAAUCGGUUUG [Fam1A.1 aminoacylation ribozyme variant] | 4.11 | 0.903 | 1 | 3.18 | 0.81 | 0.907
39 | GUUACCCUGGUCAUUGAGUGA [Fam2.1 aminoacylation ribozyme variant] | 71.3 | 10.2 | 11 | 13 | 5.29 | 4.72
40 | AAGUUUGAUAAAAGUCGCAAG [Fam3.1 aminoacylation ribozyme variant] | 2.15 | 1.64 | 1.13 | 1.46 | 1.22 | 1.51
41 | CUACUUCAAACCAUCCGUCUG [Fam1A.1 aminoacylation ribozyme variant] | 0.573 | 0.891 | 0.721 | 0.802 | 1.14 | 0.891
42 | CUACUUCAACGAAUCGGUCUG [Fam1A.1 aminoacylation ribozyme variant] | 4.58 | 0.753 | 1.02 | 3.92 | 0.833 | 0.847
